Measurements taken from US20240010735A1 (EISAI R AND D MANAGEMENT, published 2024).

Experiments:
Assay in all cases: ELISA: Fc-His proteins (1 nM) captured on anti-6-His antibody, antibody A 10 µg/mL with human IgG 100 µg/mL, HRP anti-mouse IgG, OD450 as % of mouse EphA4-Fc-His
[1] = target: T1, mouse EphA3 extracellular region-Fc-His protein (mouse; human, UniProt P29319 21-540)
T1 construct: extracellular domain; not shown: Fc region of human IgG1; histidine tag
T1 sequence (looked up): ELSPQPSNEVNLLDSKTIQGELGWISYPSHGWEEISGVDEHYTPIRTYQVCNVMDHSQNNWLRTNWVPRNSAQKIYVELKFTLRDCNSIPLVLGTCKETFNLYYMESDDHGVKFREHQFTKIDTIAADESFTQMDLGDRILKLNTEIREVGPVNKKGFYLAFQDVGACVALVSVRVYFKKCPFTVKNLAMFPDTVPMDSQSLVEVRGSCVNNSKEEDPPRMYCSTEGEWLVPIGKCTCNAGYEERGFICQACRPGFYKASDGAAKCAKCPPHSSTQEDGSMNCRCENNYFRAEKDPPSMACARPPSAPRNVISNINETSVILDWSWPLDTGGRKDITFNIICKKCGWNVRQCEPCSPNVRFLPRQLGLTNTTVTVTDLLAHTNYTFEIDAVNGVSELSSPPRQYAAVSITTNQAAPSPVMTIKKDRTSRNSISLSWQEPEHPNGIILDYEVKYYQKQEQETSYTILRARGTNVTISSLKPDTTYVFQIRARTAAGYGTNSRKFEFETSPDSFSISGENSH
Method: (§1) Rabbit anti-6-His antibodies (Bethyl Laboratories) were coated onto the wells of a 96-well plate (Nunc). After incubating at 4° C. overnight, the wells were blocked at room temperature for 1 hour by 1% Block Ace (DS Pharma Biomedical). After washing 3 times with 0.05% Tween 20/PBS (Thermo […]), each Eph receptor of mouse extracellular region-Fc-His protein (final concentration 1 nM) was seeded into each well, and incubated at room temperature for 1 hour. After washing 3 times, human IgG solution (100 μg/mL, Sigma) and antibody A (10 μg/mL) were supplemented to the wells, and incubated at room temperature for 1 hour. Horseradish peroxidase-labeled donkey anti-mouse IgG antibody (Jackson ImmunoResearch Laboratories) was added, and incubated at room temperature for 1 hour. After washing 3 times, TMBZ (3,3′,5,5′-tetramethylbenzidine, Sigma) solution was added to the wells, and upon confirmation of modest coloring, an equal amount of quenching solution (1 N H₂SO₄, Wako Pure Chemicals) was added to the wells, and absorbance at 450 nm was read by a microplate reader (PerkinElmer).

[2] = target: T2, mouse EphA1 extracellular region-Fc-His protein (mouse; human, UniProt Q60750 27-548)
T2 construct: extracellular domain; not shown: Fc region of human IgG1; histidine tag
T2 sequence (looked up): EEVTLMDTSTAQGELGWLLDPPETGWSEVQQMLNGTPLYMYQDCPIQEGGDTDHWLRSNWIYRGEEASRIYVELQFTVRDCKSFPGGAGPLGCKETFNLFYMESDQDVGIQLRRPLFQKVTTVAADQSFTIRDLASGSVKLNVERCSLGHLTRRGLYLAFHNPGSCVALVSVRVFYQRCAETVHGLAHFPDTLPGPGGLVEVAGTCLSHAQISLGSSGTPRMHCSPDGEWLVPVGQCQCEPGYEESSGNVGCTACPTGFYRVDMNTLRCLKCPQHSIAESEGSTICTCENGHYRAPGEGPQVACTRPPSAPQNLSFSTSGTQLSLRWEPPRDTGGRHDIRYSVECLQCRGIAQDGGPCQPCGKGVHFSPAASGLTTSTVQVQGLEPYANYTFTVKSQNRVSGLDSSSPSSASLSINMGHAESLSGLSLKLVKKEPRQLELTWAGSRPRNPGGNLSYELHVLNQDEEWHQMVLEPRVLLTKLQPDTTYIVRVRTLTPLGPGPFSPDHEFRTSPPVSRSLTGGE
Method: as §1

[3] = target: T3, mouse EphA7 extracellular region-Fc-His protein (mouse; human, UniProt Q61772 28-555)
T3 construct: extracellular domain; not shown: Fc region of human IgG1; histidine tag
T3 sequence (looked up): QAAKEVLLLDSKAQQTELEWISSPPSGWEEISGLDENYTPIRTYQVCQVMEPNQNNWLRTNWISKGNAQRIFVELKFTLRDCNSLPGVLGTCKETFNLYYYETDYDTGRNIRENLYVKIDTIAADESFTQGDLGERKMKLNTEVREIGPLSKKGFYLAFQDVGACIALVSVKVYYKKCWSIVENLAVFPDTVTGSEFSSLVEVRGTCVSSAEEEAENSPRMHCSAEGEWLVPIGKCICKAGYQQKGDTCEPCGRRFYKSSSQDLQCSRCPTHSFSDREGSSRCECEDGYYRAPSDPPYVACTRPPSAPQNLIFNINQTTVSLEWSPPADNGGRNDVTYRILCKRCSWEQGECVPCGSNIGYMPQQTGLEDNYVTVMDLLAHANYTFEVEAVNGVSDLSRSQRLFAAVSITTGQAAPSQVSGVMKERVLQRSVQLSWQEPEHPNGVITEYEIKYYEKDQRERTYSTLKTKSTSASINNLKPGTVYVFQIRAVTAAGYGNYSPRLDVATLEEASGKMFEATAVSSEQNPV
Method: as §1

Measured: binding result

B1: mouse anti-EphA4 monoclonal antibody (antibody A) (antibody, mouse IgG1, kappa, V domains shown)
VH: QVQLKQSGPSLVQPSQSLSITCTVSGFSLTRYGVHWVRQSPGKGLEWLGVIWRGGSTDYNAAFMSRLSITKDNSKSQVFFKMNSLQADDTAIYYCAKESLFGVYYDYGYYSMDYWGQGTSVTVSS
VL: DIQMTQSPSSLSASLGERVSLTCRASQEISGYLSWLQQKPDGTIKRLIYAASTLDSGVPKRFSGSRSGSDYSLTISSLESEDFADYYCLQYASYPLTFGAGTKLELKR
notes: purified from hybridoma supernatant
no binding (tested: 10 µg/mL): all assays above
